Results from patent US20240293512A1 (HANMI PHARM, published 2024).
Bridge positions count the residues as written; N and C are the ends. Square brackets hold non-standard residues; d marks the D form. Ends that are not written are not given here. * marks the point of attachment. Acetyl(2-(4-imidazolyl)) = O=C(Cc1c[nH]cn1)*; Aib = CC(C)(N)C(=O)O

Assays:
Assay in all cases: cell-based or functional assay
[1] = biological target: human GLP-1 receptor (human, UniProt P43220 24-463)
[2] = biological target: T1, human GIP receptor (human, UniProt P48546 22-466)
T1 sequence (looked up): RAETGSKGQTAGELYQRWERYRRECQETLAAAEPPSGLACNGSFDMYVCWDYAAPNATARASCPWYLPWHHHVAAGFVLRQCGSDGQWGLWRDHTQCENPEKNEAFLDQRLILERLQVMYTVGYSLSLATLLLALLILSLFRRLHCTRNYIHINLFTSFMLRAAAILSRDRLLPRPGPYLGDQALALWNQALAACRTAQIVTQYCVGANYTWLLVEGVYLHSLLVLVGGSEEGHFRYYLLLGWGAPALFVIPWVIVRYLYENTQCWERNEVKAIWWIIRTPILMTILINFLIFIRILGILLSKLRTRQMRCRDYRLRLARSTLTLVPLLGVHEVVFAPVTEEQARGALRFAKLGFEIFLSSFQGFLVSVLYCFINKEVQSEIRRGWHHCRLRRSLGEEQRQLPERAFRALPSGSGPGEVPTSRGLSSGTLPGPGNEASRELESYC

[3] = biological target: human GCG receptor (human, UniProt P47871 26-477)
Chain of human GCG receptor (P47871 26-477): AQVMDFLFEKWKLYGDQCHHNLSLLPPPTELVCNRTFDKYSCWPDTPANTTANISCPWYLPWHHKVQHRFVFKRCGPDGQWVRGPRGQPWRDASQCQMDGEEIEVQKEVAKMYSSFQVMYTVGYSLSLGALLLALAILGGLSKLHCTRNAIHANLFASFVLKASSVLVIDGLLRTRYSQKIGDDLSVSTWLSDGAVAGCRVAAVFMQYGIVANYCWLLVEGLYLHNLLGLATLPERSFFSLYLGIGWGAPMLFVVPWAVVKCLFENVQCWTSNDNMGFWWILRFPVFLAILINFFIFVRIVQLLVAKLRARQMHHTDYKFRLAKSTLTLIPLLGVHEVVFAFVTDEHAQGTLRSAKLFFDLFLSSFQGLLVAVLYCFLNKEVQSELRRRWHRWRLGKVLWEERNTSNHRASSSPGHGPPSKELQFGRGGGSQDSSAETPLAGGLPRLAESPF

Binder | In vitro activity compared with native peptide (%) vs GLP-1 (cAMP EC50) [1] [%] | In vitro activity compared with native peptide (%) vs GIP (cAMP EC50) [2] [%] | In vitro activity compared with native peptide (%) vs Glucagon (cAMP EC50) [3] [%]
[Acetyl(2-(4-imidazolyl))][Aib]QGTFTSDYSIAMDEIHQKDFVNWLLAQKC (bridge 16-20) [triple agonist of SEQ ID NO: 92] | 0.8 | 0.4 | < 0.1
H[Aib]QGTFTSDVSKYLDGQAAQEFVAWLLAGC [triple agonist of SEQ ID NO: 9] | 32.1 | < 0.1 | 0.13
H[Aib]QGTFTSDYSKYLDEKRQKEFVQWLLDTKC (bridge 16-20) [triple agonist of SEQ ID NO: 78] | 51 | 0.12 | 14
[Acetyl(2-(4-imidazolyl))][Aib]QGTFTSDYSKYLDEKRQKEFVQWLLNTC (bridge 16-20) [triple agonist of SEQ ID NO: 81] | 7.8 | < 0.1 | 0.3
H[Aib]EGTFTSDYSIAMDEIHQKDFVDWLLAEKC (bridge 16-20) [triple agonist of SEQ ID NO: 80] | 8.1 | 0.1 | 0
[Acetyl(2-(4-imidazolyl))][Aib]QGTFTSDYSKYLDEKRQKEFVNWLLAQC (bridge 16-20) [triple agonist of SEQ ID NO: 86] | 28.4 | 0.2 | 0.4
[Acetyl(2-(4-imidazolyl))][Aib]EGTFTSDYSIAMDEIHQKDFVNWLLAQC (bridge 16-20) [triple agonist of SEQ ID NO: 83] | 47.3 | 0.4 | 1.3
[Acetyl(2-(4-imidazolyl))][Aib]QGTFTSDYSKYLDEKRQKEFVNWLLAQKC (bridge 16-20) [triple agonist of SEQ ID NO: 93] | 5.7 | 0.7 | 0.3
[Acetyl(2-(4-imidazolyl))][Aib]QGTFTSDYSIAMDEIHQKDFVNWLLNTKC (bridge 16-20) [triple agonist of SEQ ID NO: 94] | 0.5 | < 0.1 | < 0.1
Y[Aib]QGTFTSDYSKYLDEKRAKEFVQWLLDHCPSSGQPPPS (bridge 16-20) [triple agonist of SEQ ID NO: 96] | 34.4 | 5.2 | 195
[Acetyl(2-(4-imidazolyl))][Aib]QGTFTSDYSKYLDEKRQKEFVQWLLNTKC (bridge 16-20) [triple agonist of SEQ ID NO: 88] | 9.6 | < 0.1 | 0.3
Y[Aib]QGTFTSDYSKYLDEKRAKEFVQWLLCHHPSSGQPPPS (bridge 16-20) [triple agonist of SEQ ID NO: 95] | 2.1 | < 0.1 | 0.4
[Acetyl(2-(4-imidazolyl))][Aib]EGTFTSDYSIAMDEIHQKDFVDWLLAEKC (bridge 16-20) [triple agonist of SEQ ID NO: 91] | 31.9 | 0.3 | 16.8
[Acetyl(2-(4-imidazolyl))][Aib]EGTFTSDYSIAMDEIHQKDFVNWLLAQKC (bridge 16-20) [triple agonist of SEQ ID NO: 90] | 7.4 | < 0.1 | < 0.1
[Acetyl(2-(4-imidazolyl))][Aib]QGTFTSDYSKYLDEKRQKEFVQWLLDTKC (bridge 16-20) [triple agonist of SEQ ID NO: 89] | 7.1 | < 0.1 | 0.7
H[Aib]EGTFTSDYSIAMDEIHQKDFVNWLLAQKC (bridge 16-20) [triple agonist of SEQ ID NO: 79] | 41.5 | 1.4 | 4.9
[Acetyl(2-(4-imidazolyl))][Aib]QGTFTSDYSIAMDEIHQKDFVNWLLNTC (bridge 16-20) [triple agonist of SEQ ID NO: 87] | 0.9 | < 0.1 | < 0.1
[Acetyl(2-(4-imidazolyl))][Aib]EGTFTSDYSIAMDEIHQKDFVDWLLAEC (bridge 16-20) [triple agonist of SEQ ID NO: 84] | 4.2 | < 0.1 | < 0.1
[Acetyl(2-(4-imidazolyl))][Aib]QGTFTSDYSIAMDEIHQKDFVNWLLAQC (bridge 16-20) [triple agonist of SEQ ID NO: 85] | 4.3 | 0.3 | < 0.1
H[Aib]QGTFTSDVSKYLDGQAAQEFVAWLLAGGGPSSGAPPPSC [triple agonist of SEQ ID NO: 10] | 46 | < 0.1 | < 0.1
[Acetyl(2-(4-imidazolyl))][Aib]QGTFTSDYSKYLDEKRQKEFVQWLLDTC (bridge 16-20) [triple agonist of SEQ ID NO: 82] | 9.5 | < 0.1 | 1.1
